{"source": "patent US20210030885A1", "about": "“HUMANIZED ANTI-LIV1 ANTIBODIES FOR THE TREATMENT OF CANCER” (priority 2019, published 2021)", "test": "Drug to antibody ratio (DAR) of ADC in blood samples after LV administration, Q3W", "format": "in vivo, human", "conditions": "Q3W dosing", "method": "In order to investigate pharmacokinetics of ADC species with different DARs under the previous tri-weekly dosing scheme (Q3W) versus a weekly dosing scheme (Q1W), LV was administered to subjects accordingly, and the pharmacokinetics of ADC species with different DARs were simulated.\nBreast cancer patients were treated with ladiratuzumab vedotin (LV).\nLV was administered by 30 minute intravenous (IV) infusion under a Q3W interval.\nFollowing administration of LV, subject blood samples were collected at pre-dose, end of infusion, 2 hrs, 4 hrs, 8 hrs, 1 day, 3 days, 7 days, and 14 days after administration. The concentrations of the antibody-drug conjugate (ADC) was measured, and the drug to antibody ratio (DAR) of each species (DAR8, DAR7, DAR6, DARS, DAR4, DAR3, DAR2, DAR1 and DAR0) of the ADCs collected in blood samples was also analyzed. […] Using computer-assisted modeling, where decrease in average DAR was established previously, i.e. from 4 (on Day 0) to 1 (on Day 7) under Q3W, the pharmacokinetics were simulated for (i) ADCs with DARs≥4, or (ii) ADCs with DAR of between 2 and 3 (FIGS. 3B, C respectively) when LV was administered at a dose of 1 mg/kg on Day 1 of each 7-day cycle (Q1W) or at a dose of 3 mg/kg on Day 1 of each 21-day cycle (Q3W). […]"}
{"substance": "ladiratuzumab vedotin [LV]", "values": [{"measurement": "DAR of ADCs in blood", "setting": "Day 0", "result": "about 4"}, {"measurement": "DAR of ADCs in blood", "setting": "Day 7", "result": "about 1"}]}
